Here are results for 2 sequences from US20140072613A1, “Compositions and Methods for Treating Cutaneous Scarring” (priority 2012, published 2014).

Experiment in all cases: biochemical
Holding throughout (format): biochemical

Assay [1] addresses 266 human kinases (Homo sapiens, UniProt O43353). The conditions noted are these: RIPK2(h); 100 μM. The method, boiled down: (§1)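 Read-out by scintillation counting of radiolabelled, positively charged substrate bound to negatively charged filter; activity normalised to 100% control. Phosphate transferred from radiolabelled ATP.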
The target of assay [2] is 266 human kinases (Homo sapiens, UniProt P08581, Y1230C). The following applies: Met(Y1248C)(h); 100 μM. Put shortly: as §1
The target of assay [3] is 266 human kinases (Homo sapiens, UniProt P08581, Y1230H). The conditions noted are these: Met(Y1248H)(h); 100 μM. Put shortly: as §1
Assay [4] concerns the target T1, 266 human kinases (Homo sapiens, UniProt P29322).
T1 sequence (P29322 28-1005): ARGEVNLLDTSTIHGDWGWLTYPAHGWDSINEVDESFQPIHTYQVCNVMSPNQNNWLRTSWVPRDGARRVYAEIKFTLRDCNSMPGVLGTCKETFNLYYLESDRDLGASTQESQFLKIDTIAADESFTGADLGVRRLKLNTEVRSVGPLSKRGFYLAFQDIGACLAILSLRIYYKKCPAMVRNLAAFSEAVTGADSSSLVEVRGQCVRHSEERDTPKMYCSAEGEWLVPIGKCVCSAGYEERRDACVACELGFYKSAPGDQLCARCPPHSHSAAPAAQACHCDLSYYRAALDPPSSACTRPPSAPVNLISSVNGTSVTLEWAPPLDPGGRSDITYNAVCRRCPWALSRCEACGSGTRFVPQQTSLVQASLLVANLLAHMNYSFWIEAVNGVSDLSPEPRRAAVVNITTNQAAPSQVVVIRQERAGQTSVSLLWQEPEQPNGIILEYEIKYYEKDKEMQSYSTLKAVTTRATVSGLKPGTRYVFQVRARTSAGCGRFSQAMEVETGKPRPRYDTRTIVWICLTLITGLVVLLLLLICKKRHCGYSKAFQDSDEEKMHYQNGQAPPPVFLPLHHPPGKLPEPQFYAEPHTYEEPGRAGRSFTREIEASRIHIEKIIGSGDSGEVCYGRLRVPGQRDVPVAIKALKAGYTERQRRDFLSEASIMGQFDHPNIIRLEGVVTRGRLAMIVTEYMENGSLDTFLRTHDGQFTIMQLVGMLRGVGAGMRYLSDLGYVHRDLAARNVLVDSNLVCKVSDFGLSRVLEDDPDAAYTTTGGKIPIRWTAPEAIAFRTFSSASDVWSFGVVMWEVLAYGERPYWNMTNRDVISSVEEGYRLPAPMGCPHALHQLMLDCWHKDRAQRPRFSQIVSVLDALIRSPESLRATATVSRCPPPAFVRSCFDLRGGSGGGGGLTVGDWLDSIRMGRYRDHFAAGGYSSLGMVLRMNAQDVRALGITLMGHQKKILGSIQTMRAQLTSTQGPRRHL
The conditions noted are these: EphA8(h); 100 μM. The method, boiled down: as §1

Assay [5] has as its target 266 human kinases (Homo sapiens, UniProt P30530). The following applies: Axl(h); 100 μM. Put shortly:
as §1

The target in assay [6] is 266 human kinases (Homo sapiens, UniProt P51812). The conditions noted are these: Rsk2(h); 100 μM. The method, boiled down:
as §1

Assay [7] concerns the target 266 human kinases (Homo sapiens, UniProt Q13554). The following applies: CaMKIIβ(h); 100 μM. The method, boiled down:
as §1

In assay [8] the target is T2, 266 human kinases (Homo sapiens, UniProt Q8TDC3).
T2 sequence (Q8TDC3 1-778): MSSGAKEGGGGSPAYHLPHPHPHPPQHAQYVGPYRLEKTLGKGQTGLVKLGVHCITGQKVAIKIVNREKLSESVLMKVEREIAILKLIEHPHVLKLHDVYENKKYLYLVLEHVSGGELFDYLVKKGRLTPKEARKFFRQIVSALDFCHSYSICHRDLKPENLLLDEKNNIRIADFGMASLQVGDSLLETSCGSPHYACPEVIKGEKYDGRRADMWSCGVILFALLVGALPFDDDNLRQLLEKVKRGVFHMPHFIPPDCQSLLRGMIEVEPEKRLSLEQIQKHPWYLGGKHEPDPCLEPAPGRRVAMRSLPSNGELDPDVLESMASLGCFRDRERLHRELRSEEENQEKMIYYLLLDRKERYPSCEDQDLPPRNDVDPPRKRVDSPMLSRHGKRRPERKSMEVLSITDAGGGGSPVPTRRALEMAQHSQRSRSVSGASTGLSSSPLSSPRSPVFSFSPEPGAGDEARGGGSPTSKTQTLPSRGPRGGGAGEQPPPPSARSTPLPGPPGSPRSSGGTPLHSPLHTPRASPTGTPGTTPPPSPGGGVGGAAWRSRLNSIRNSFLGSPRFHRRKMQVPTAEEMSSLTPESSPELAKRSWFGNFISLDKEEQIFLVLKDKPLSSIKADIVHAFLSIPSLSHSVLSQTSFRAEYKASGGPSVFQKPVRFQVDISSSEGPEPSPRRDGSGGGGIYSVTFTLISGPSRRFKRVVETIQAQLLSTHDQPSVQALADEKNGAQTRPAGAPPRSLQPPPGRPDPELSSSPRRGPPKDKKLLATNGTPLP
The conditions noted are these: BrSK1(h); 100 μM. Put shortly:
as §1

The target of assay [9] is T3, 266 human kinases (Homo sapiens, UniProt Q9BXA7).
T3 sequence (Q9BXA7 1-367): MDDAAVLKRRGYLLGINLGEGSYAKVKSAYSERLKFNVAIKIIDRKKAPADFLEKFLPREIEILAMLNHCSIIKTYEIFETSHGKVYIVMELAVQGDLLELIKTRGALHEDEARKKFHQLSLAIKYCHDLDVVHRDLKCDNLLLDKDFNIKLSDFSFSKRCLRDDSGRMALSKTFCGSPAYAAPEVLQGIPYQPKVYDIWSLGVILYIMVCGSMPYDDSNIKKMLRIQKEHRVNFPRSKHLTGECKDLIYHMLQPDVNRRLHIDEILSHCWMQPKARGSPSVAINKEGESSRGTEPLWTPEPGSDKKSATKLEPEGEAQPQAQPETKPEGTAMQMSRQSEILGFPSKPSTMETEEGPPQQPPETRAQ
The conditions noted are these: TSSK1(h); 100 μM. Put shortly:
as §1

Assay [10] concerns the target 266 human kinases (Homo sapiens, UniProt Q9P286). The conditions noted are these: PAK5(h); 100 μM. Put shortly: as §1

266 human kinases (Homo sapiens, UniProt O43353), sequence (O43353 whole entry): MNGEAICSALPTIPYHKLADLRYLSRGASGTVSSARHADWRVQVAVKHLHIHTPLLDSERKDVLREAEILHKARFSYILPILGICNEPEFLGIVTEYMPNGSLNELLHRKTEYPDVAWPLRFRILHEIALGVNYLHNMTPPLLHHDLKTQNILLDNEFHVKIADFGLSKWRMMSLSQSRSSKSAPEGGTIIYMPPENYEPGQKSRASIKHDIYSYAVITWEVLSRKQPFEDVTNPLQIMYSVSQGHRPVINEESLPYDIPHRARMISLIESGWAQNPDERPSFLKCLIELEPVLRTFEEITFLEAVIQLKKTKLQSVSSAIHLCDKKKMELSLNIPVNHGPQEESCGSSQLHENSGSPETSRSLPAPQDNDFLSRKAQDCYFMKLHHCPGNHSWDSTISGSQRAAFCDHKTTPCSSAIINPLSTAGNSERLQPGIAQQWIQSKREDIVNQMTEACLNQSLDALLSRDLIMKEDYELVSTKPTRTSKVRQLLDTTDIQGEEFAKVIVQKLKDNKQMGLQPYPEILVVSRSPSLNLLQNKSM
266 human kinases (Homo sapiens, UniProt Q13554), sequence (Q13554 whole entry): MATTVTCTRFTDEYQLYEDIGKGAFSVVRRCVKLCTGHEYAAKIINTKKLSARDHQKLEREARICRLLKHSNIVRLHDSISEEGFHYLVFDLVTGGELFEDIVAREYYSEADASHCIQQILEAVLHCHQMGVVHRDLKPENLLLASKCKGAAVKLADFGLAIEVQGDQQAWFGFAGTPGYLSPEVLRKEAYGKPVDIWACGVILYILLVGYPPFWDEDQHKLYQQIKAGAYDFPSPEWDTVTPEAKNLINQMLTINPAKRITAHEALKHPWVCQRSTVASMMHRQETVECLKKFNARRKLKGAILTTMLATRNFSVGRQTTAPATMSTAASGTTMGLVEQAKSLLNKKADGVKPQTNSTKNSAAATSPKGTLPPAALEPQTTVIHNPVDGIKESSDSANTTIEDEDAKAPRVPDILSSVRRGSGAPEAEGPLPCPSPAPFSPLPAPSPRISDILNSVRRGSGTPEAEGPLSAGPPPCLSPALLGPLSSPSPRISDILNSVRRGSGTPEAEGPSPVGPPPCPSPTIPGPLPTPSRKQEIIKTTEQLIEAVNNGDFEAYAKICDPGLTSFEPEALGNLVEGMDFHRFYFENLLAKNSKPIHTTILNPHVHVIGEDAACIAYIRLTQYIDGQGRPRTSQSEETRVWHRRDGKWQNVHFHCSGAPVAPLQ
266 human kinases (Homo sapiens, UniProt P51812), sequence (P51812 whole entry): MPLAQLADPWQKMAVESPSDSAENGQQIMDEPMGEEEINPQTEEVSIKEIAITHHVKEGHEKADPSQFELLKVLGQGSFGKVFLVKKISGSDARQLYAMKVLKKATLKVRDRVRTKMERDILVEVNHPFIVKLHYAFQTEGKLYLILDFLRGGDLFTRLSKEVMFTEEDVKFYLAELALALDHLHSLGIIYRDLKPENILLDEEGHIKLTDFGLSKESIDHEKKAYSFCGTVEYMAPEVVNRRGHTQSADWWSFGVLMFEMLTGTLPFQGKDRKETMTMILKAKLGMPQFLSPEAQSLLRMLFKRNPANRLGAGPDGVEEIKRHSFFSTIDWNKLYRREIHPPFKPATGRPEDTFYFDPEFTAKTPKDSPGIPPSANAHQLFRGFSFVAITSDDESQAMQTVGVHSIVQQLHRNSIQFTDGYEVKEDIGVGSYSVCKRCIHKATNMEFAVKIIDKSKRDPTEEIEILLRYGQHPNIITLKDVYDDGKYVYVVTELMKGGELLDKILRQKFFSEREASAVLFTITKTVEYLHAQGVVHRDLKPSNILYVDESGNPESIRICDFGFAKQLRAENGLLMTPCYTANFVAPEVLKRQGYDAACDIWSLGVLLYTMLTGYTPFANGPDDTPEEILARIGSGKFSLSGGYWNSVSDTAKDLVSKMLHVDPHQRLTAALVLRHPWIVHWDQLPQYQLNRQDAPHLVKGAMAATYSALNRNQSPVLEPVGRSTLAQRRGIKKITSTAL
266 human kinases (Homo sapiens, UniProt Q9P286), sequence (Q9P286 whole entry): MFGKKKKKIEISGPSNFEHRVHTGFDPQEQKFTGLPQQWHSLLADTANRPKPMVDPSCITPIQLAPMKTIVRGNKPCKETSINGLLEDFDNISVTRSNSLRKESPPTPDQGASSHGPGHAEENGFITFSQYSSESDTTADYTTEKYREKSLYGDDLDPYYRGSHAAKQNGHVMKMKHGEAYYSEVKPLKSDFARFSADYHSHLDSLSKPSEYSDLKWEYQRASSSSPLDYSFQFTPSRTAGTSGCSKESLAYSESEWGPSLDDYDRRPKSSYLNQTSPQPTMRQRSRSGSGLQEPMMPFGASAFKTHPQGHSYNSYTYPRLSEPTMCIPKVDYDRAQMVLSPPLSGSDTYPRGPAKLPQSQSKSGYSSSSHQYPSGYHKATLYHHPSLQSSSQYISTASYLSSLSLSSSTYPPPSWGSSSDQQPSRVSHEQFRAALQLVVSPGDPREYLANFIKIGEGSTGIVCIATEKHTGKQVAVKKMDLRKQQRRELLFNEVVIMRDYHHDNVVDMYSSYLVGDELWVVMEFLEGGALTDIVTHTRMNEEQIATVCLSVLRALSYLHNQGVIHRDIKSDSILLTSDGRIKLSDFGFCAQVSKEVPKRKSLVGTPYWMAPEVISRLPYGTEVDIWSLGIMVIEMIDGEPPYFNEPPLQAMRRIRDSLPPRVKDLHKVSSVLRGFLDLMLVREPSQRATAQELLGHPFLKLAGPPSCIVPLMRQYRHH

For the sequence “YARAAARQARAKALNRQLGVA (mammal) [MMI-0200]”, the “% activity” value is 98% with 266 human kinases [1]; 141% with 266 human kinases [2]; 153% with 266 human kinases [3]; 133% with 266 human kinases [4]; 99% with 266 human kinases [5]; 101% in the assay with 266 human kinases [6]. The “% activity” value was 53% in the assay with 266 human kinases [7], 93% in the assay with 266 human kinases [8], 98% with 266 human kinases [9] and 100% in the assay with 266 human kinases [10].
Take “HRRIKAWLKKIKALARQLGVAA (mammal) [MMI-0500]”: the “% activity” value in the assay with 266 human kinases [1] is on record as 30%; with 266 human kinases [2], 73%; in the assay with 266 human kinases [3], 126%; with 266 human kinases [4], 337%; in the assay with 266 human kinases [5], 12%; in the assay with 266 human kinases [6], 14%. Further, the “% activity” value is on record as 3% with 266 human kinases [7], 72% with 266 human kinases [8], 46% with 266 human kinases [9] and 125% with 266 human kinases [10].
